Earlier results as cited in publication PMC7431755, “Automated high-content imaging for cellular uptake, from the Schmuck cation to the latest cyclic oligochalcogenides” (Beilstein Journal of Organic Chemistry, 2020).
Where two headings read alike, the source gives them in different places.

Test system: HGM cells
Protocol: The CP50 value of 7.3 ± 0.5 µM obtained for 25 outperformed the CP50 value of 14.9 ± 0.5 μM of the previously reported cell-penetrating streptavidin, in which four asparagusic acids are covalently bound to the protein through irreversible triazole linkages. The CP50 value of 7.3 ± 0.5 µM of 25 was not far above the CP50 value of 3.1 ± 0.5 µM of HIV Tat, the original CPP [55]. As the uptake efficiency generally decreases with the size, this similarity is particularly impressive, considering that the COC carrying a 52 kDa protein is compared to a small undecapeptide.

| Substance | CP50 (CAPA) [µM] | CP50 [µM] |
| --- | --- | --- |
| HIV Tat: the original CPP, a small undecapeptide | 3.1 ± 0.5 | – |
| cell-penetrating streptavidin: previously reported streptavidin with four asparagusic acids covalently bound through irreversible triazole linkages | – | 14.9 ± 0.5 |
